Measurements published in patent US6569833B1, “Cyclin dependent kinase binding peptides” (Cyclacel Limited, priority 1995, dated 2003).

T1: peptide 6 with residue 94 substituted by alanine
T1 chain: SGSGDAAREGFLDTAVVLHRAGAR

T2: peptide 6 with aspartic acid 92 substituted by alanine
T2 chain: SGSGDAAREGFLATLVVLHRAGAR

T3: peptide 6 (amino acids 84 to 103 of p16), biotinylated via N-terminal SGSG linker
T3 chain: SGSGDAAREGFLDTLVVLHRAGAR


Columns and labels:
[1] = target: T4, cdk6 (Homo sapiens, UniProt Q00534); test: Peptide precipitation of in vitro translated 35S-labelled cdk6 from reticulocyte lysate; type: binding; conditions: biotinylated peptide on streptavidin agarose beads, densitometry
T4 construct: host or cells: coupled in vitro transcription/translation in rabbit reticulocyte lysate
Method: (§1) A 20 aa peptide library with a 5 aa overlap of p16 (apart from the first 8 N-terminal residues) was synthesised adding a SGSG linker to the N-terminus to which a biotin group was coupled. The alanine substitution series of peptide 6 was synthesised in the same way. The peptides were coupled to streptavidin immobilised on agarose beads and washed 4 times in PBS before incubating for 1 hour on ice with rabbit reticulocyte lysate (Promega) containing ^35S-methionine labelled cdk4 or cdk6. The beads were washes 4 times in 1.2×PBS with 0.2% Triton X-100 before addition of SDS loading buffer and applied to 12% SDS polyacrylamide gels. The gels were exposed to an autoradiography film and the bands corresponding to cdk4 and cdk6 were analysed by densitometry.
(§2) To study the binding of peptides to cdk4 and cdk6 we expressed the proteins in a coupled in vitro reticulocyte translation system in the presence of ^35S labelled methionine. A biotin group coupled to a Ser-Gly-Ser-Gly-linker at the N-terminus of the peptides was coupled to streptavidin coated agarose beads and incubated with the cell lysates.

[2] = target: T5, cdk4 (Homo sapiens, UniProt P11802); test: Peptide precipitation of in vitro translated 35S-labelled cdk4 from reticulocyte lysate; type: binding; conditions: biotinylated peptide on streptavidin agarose beads, densitometry
T5 construct: host or cells: coupled in vitro transcription/translation in rabbit reticulocyte lysate
Method: as §1, §2

[3] = target: T6, cdk4-cyclin D (Homo sapiens, UniProt P11802); test: pRb phosphorylation in vitro by Sf9 lysates containing cdk4 and cyclin D; type: biochemical; parameters: dose or concentration left out as unconfirmed; conditions: full length Rb protein
T6 construct: made in house; host or cells: Sf9 insect cells infected with baculovirus (separate crude lysates for cdk4 and cyclin D, mixed in the assay)
Method: Peptides were incubated at a concentration of […] in a buffer containing 50 mM Hepes pH 7.4, 10 mM MgCl2, 2.5 mM EGTA, 1 mM DTT, 10 mM β-glycerophosphate, 1 mM NaF and 1 mM Na3VO4 and […] of extract from Sf9 insect cells infected with human cdk4-expressing baculovirus lysed in 10 mM Hepes pH 7.4, 10 mM NaCl, 1 mM EDTA and 0.5 mM PMSF. The mixture was incubated for 60 minutes on ice. Human cyclin D containing Sf9 lysate ([…]) prepared as above was added together with 0.6 mg of purified recombinant full length Rb protein and 2.5 mM ^32P ATP in a final concentration of […] ATP and incubated for 10 minutes at +30° C., the reaction was terminated by addition of SDS loading buffer and loaded onto 8% SDS polyacrylamide gels. The gels were either exposed to autoradiographic film (FIG. 2A) or the levels of pRb phosphorylation were estimated by a Phosphoimager (FIG. 2B).

[4] = target: T6, cdk4-cyclin D; test: as above; type: biochemical; conditions: for block of cdk4-cyclin D dependent pRb phosphorylation: 50 μM peptide, dilution series
[5] = tested on: HaCaT cells; test: Cell cycle inhibition: S-phase entry of serum-starved cells by BrdU incorporation; type: cell-based, human; conditions: 10 μM peptide concentration
Method: Cells were synchronised in G0 by serum starvation for 72 hours before serum and 10 μM BrdU were added. […] The data presented show % inhibition of cells entering S-phase after incubation with peptide 6 coupled to Penetratin in relation to cells incubated with serum only.
A cysteine residue was added to the C-terminus of peptide 6 and used for coupling to the 16 amino acids long Penetratin peptide (amino acid sequence RQIKIWFQNRRMKWKK)(SEQ ID NO:3) of the Antennapedia homeodomain (24) (Appligen) by means of a disulzhide bond. Cells were seeded on cover slips prior to starvation for 72 hours in DMEM medium without FCS. The medium was substituted by DMM containing 10% FCS and BrdU. The coupled peptides were added at different time points after serum stimulation. The number of cells entering S-phase was determined by estimating the numbers of cells incorporating BrdU at 24 hours by fixing the cells on cover slips in acetone/methanol (1:1), incubating in 1M HCl for 30 minutes, washing 6 times in PBS and then incubating with anti-BrdU monoclonal antibody and Texas Red conjugated secondary antibody and mounted in Mowiol containing Hoescht. At least six different areas on three different cover slips were counted for each single experiment which was repeated at least two times. The values presented in FIG. 3A show one representative experiment.

[6] = target: cdk4 (human, UniProt P11802 1-303); test: cell-based or functional assay
[7] = target: T1, peptide 6 with residue 94 substituted …
[8] = target: peptide 1 of the p16 20 aa peptide library
[9] = target: T2, peptide 6 with aspartic acid 92 …
[10] = target: T3, peptide 6 (amino acids 84 to 103 of …)
[11] = target: peptide 10 of the p16 20 aa peptide library

T4 sequence (Q00534 whole entry): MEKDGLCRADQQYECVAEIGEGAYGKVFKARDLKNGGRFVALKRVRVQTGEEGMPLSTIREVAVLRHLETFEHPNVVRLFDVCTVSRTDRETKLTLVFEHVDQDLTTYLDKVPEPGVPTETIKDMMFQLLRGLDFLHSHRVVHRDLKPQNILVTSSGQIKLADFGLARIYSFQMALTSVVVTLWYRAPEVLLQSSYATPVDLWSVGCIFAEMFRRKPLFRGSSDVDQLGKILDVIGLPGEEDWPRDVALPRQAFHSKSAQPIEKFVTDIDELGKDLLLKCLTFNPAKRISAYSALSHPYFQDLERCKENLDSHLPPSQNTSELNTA

Row | relative binding to in vitro expressed cdk6 [1] | relative binding to in vitro expressed cdk4 [2] | Molecule | inhibition of pRb phosphorylation [3] | also measured
1 | binds | binds | DAARAGFLDTLQTLLEFQAD (SGSGDAARAGFLDTLQTLLEFQAD) [p18 peptide, peptide derived from p18 corresponding to the 84-103 region of p16] | inhibit pRb phosphorylation | 
2 | severely reduced | severely reduced | AREGFLDTLVVLHRAGAR (SGSGAREGFLDTLVVLHRAGAR) [peptide 6 in FIGS. 5A-C, deletion series peptide, 2 residues removed at the N-terminus of the p16 84-103 peptide] | severely reduced | 

The remaining lines, values behind:

Row | Molecule | relative binding to in vitro expressed cdk6 [1] | relative binding to in vitro expressed cdk4 [2] | inhibition of pRb phosphorylation [3] | also measured
3 | DAAREGFLDTLVVLHGSGAR (SGSGDAAREGFLDTLVVLHGSGAR) [mouse p16 peptide, peptide derived from mouse p16 corresponding to the 84-103 region of p16] | binds | binds | inhibit pRb phosphorylation | 
4 | FLDTLVVLHRAGAR [peptide 8, 14 aa peptide of the p16 deletion series] |  |  | able to exert a biological effect which is the same or analogous to that of full length p16 | 
5 | DAAPEGFLDTLVVLHRAGAR [R87P, p16 84-103 peptide with the R87P substitution] |  |  | does not hamper the function of the peptide | 
6 | Ala92: peptide 6 in which aspartic acid 92 is substituted by alanine (SGSGDAAREGFLATLVVLHRAGAR) | more potent binding | more potent binding | even more efficiently than the wild type peptide 6 | block of cdk4-cyclin D dependent pRb phosphorylation ([4]; listed as Ala92 peptide): almost completely blocked; block of cdk4-cyclin D dependent pRb phosphorylation ([4]; listed as Ala-92): nearly complete
7 | EGFLDTLVVLHRAGAR [peptide 7, 16 aa peptide of the p16 deletion series] |  |  | able to exert a biological effect which is the same or analogous to that of full length p16 | 
8 | peptide 21: 36aa synthetic peptide (Penetratin sequence plus 20aa p16 peptide) that carries the VV.95,96AA mutation (RQIKIWFQNRRMKWKKDAAREGFLDTLAALHRAGAR) |  |  |  | block of S-phase entry [5]: significantly less active in vivo; block of S-phase entry ([5]; listed as pep21): only marginal effect; inhibition of cdk-cyclin D kinase activity ([4]; 36aa Penetratin-linked peptides, increasing concentrations (FIG. 6A)): less active
9 | Ala94: peptide 6 with the single alanine substitution at residue 94 (SGSGDAAREGFLDTAVVLHRAGAR) |  |  |  | block of cdk4-cyclin D dependent pRb phosphorylation [4]: completely inactivates the function of peptide 6
10 | His-tagged p16 protein with the VV.95,96AA mutations (from UniProt P42771 1-156) |  |  |  | 50% kinase inhibitory concentration, fold increase against wild type His-tagged p16 [6]: 5 fold
11 | FLDTLVVLHRAG [peptide 9, 12 aa peptide of the p16 deletion series] |  |  | able to exert a biological effect which is the same or analogous to that of full length p16 | 
12 | RQIKIWFQNRRMKWKKDAAREGFLDTLAALHRAGAR [peptide 21 (36 aa synthetic peptide, Penetratin-p16 peptide carrying the VV.95,96AA mutation)] |  |  |  | 50% kinase inhibitory concentration, fold increase [6]: ~5 fold
13 | cdk4 (protein) MATSRYEPVAEIGVGAYGTVYKARDPHSGHFVALKSVRVPNGGGGGGGLPISTVREVALLRRLEAFEHPNVVRLMDVCATSRTDREIKVTLVFEHVDQDLRTYLDKAPPPGLPAETIKDLMRQFLRGLDFLHANCIVHRDLKPENILVTSGGTVKLADFGLARIYSYQMALTPVVVTLWYRAPEVLLQSTYATPVDMWSVGCIFAEMFRRKPLFCGNSEADQLGKIFDLIGLPPEDDWPRDVSLPRGAFPPRGPRPVQSVVPEMEESGAQLLLEMLTFNPHKRISAFRALQHSYLHKDEGNPE |  |  |  | pRb phosphorylation (dilution series) [7]: the single substitution Ala94 completely inactivates the function of peptide 6 in this assay; pRb phosphorylation [8]: do not affect pRb phosphorylation; phosphorylation of the full length Rb protein by Sf9 lysates containing cdk4 and cyclin D [9]: inhibits phosphorylation of the full length Rb protein even more efficiently than the wild type peptide 6; level of pRb phosphorylation by Sf9 lysates containing cdk4 and cyclin D [10]: significantly reduces the level of pRb phosphorylation; pRb phosphorylation [11]: do not affect pRb phosphorylation
